B1: hLDLR fused to GFP, on CHO-hLDLR-GFP cells (receptor)
chain: not shown
notes: whole, on cells; also called CHO-LDLR-GFP; not shown: GFP fused in the C-term position
B2: peptide SEQ ID NO: 1, (D)-Cys-Met-Thz-Arg-Leu-Arg-Gly-Pen (peptide)
peptide: XMXRLRGX
modifications: (D)-Cys at 1, Thz (thiazolidine-4-carboxylic acid) at 3, Pen (penicillamine) at 8; cyclised by a disulfide bridge

Experiments:
[1] = biological target: T1, Fc alone (human Fc fragment of an IgG1 antibody) (human, UniProt P01857-1 104-330 = IgG part, limits assumed); assay: pulse-chase immunocytochemistry on CHO-hLDLR-GFP cells, anti-human Fc antibody Alexa 594
T1 construct: domain: Fc fragment; Negative control

[2] = biological target: mouse LDLR (in vivo, wild-type against LDLR -/- mice) (mouse, UniProt P35951 22-862); assay: cell-based or functional assay
Sequence of mouse LDLR (in vivo, wild-type against LDLR -/- mice) (P35951 22-862): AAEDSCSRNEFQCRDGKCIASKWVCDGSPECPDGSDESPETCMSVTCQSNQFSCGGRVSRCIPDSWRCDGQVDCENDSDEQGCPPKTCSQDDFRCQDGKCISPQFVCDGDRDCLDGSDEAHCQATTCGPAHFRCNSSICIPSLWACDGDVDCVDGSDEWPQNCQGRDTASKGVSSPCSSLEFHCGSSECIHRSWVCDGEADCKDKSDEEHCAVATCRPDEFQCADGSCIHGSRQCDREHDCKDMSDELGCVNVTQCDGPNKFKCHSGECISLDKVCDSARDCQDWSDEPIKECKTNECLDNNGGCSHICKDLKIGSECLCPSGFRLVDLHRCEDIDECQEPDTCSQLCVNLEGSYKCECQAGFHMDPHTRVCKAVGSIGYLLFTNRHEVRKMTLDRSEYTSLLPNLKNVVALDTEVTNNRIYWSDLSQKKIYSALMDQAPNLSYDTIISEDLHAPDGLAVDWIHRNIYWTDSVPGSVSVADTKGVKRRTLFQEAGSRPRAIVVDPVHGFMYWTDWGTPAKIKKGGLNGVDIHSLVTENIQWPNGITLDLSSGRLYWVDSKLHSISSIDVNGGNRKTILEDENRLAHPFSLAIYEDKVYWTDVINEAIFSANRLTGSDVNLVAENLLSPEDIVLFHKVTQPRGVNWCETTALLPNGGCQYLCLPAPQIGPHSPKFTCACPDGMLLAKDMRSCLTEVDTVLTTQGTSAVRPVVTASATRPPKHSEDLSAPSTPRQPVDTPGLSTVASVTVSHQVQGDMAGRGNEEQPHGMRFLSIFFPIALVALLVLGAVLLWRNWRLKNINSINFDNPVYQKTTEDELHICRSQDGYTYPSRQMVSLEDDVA

| Binder | binding result [1] | decrease in peptide concentration in the adrenal glands of LDLR-/- (KO) mice compared to wild-type mice, tritium-labelled peptide, 10 min after i.v. injection [2] | decrease in peptide concentration in the intestine of LDLR-/- (KO) mice compared to wild-type mice, tritium-labelled peptide, 10 min after i.v. injection [2] | decrease in peptide concentration in the liver of LDLR-/- (KO) mice compared to wild-type mice, tritium-labelled peptide, 10 min after i.v. injection [2] |
| --- | --- | --- | --- | --- |
| B1 | no binding (tested: 5 nM) | – | – | – |
| B2 | – | ~3.4 fold | ~3.6 fold | ~4 fold |
